PMC12931233

Columns and labels:
[1] = IP and ubiquitin immunoblot
[2] = CHX chase immunoblot, 293T; half-life; details: glycan lost
[3] = immunoblot of endogenous CD47, MHCC97-H and HCCLM3; details: control: matched control (untreated/DMSO, scramble, vector)
[4] = CHX chase, rescued MHCC97-H; half-life; details: glycan changed form; control: scramble / vector, WT CD47 rescued cells
[5] = immunoblot, reconstituted MHCC97-H; details: glycan lost; control: WT CD47 reconstituted cells
[6] = CHX chase immunoblot, reconstituted MHCC97-H; half-life; details: glycan lost; control: WT CD47 reconstituted cells
[7] = cell-surface CD47 by flow cytometry and immunofluorescence; details: glycan changed form; control: scramble / vector
[8] = Transwell chemotaxis; CCR7 on DCs; details: glycan lost; control: CD47 WT reconstituted Hepa1-6
[9] = ubiquitin immunoblot, reconstituted Hepa1-6; details: glycan lost; control: WT CD47 reconstituted Hepa1-6
[10] = Transwell co-culture with BMDCs, flow cytometry; details: glycan lost; control: CD47 WT reconstituted Hepa1-6

Q: Which “other: ubiquitination level” value ([1]; glycan changed form, control: untreated / vector) does the source give for CD47: HA-FUT8 WT overexpression here?
A: decreases

Q: For CD47: N73Q, which “other: ubiquitination level” value ([1]; glycan lost, control: WT CD47) is on record?
A: no change

Q: What about the degradation_or_half_life ([2]; control: Flag-CD47 WT) of the same molecule?
A: no change

Q: With CD47: HA-FUT8 overexpression as the molecule, how does the expression_or_secretion ([3]; glycan changed form) read?
A: increases

Q: Which results are given for CD47: tunicamycin (TM)?
A: other: ubiquitination level ([1]; glycan lost, control: untreated / vector): increases; degradation_or_half_life ([2]; control: DMSO): decreases; expression_or_secretion ([3]; glycan lost): decreases

Q: Which degradation_or_half_life [4] does the source give for CD47: FUT8 depletion here?
A: decreases

Q: What does the source list for CD47: N34Q?
A: other: ubiquitination level ([1]; glycan lost, control: WT CD47): no change; degradation_or_half_life ([2]; control: Flag-CD47 WT): no change

Q: What does the source list for CD47: N111Q?
A: other: ubiquitination level ([1]; glycan lost, control: WT CD47): increases; expression_or_secretion [5]: decreases; degradation_or_half_life ([2]; control: Flag-CD47 WT): decreases; degradation_or_half_life [6]: decreases

Q: For CD47: FUT8 ablation, which expression_or_secretion [7] is on record?
A: decreases

Q: With CD47: N111T as the molecule, how does the expression_or_secretion [5] read?
A: decreases

Q: What about the degradation_or_half_life [6] of the same molecule?
A: decreases

Q: Which “other: ubiquitination level” value ([1]; glycan lost, control: WT CD47) does the source give for CD47: N50Q here?
A: no change

Q: And the degradation_or_half_life ([2]; control: Flag-CD47 WT)?
A: no change

Q: Which expression_or_secretion ([3]; glycan changed form) does the source give for CD47: 2F-Fuc here?
A: decreases

Q: What does the source list for CD47: N111A?
A: expression_or_secretion [5]: decreases; degradation_or_half_life [6]: decreases

Q: For CD47: shFUT8, which expression_or_secretion ([3]; glycan changed form) is on record?
A: decreases

Q: With CD47: FUT8 overexpression as the molecule, how does the degradation_or_half_life [4] read?
A: increases

Q: What about the expression_or_secretion [7] of the same molecule?
A: increases

Q: What does the source list for CD47: N23Q?
A: other: ubiquitination level ([1]; glycan lost, control: WT CD47): no change; degradation_or_half_life ([2]; control: Flag-CD47 WT): no change

B1: CD47 (murine): N109Q (protein)
parent chain: MWPLAAALLLGSCCCGSAQLLFSNVNSIEFTSCNETVVIPCIVRNVEAQSTEEMFVKWKLNKSYIFIYDGNKNSTTTDQNFTSAKISVSDLINGIASLKMDKRDAMVGNYTCEVTELSREGKTVIELKNRTVSWFSPNEKILIVIFPILAILLFWGKFGILTLKYKSSHTNKRIILLLVAGLVLTVIVVVGAILLIPGEKPVKNASGLGLIVISTGILILLQYNVFMTAFGMTSFTIAILITQVLGYVLALVGLCLCIMACEPVHGPLLISGLGIIALAELLGLVYMKFVASNQRTIQPPRNR
Q: Which “other: CD103+ DC migration and CCR7 expression” value [8] does the source give for B1 here?
A: increases

Q: What about the “other: ubiquitination level” value [9] of the same molecule?
A: increases

Q: What about the “other: NK cell TNF-α and GZMB expression” value [10] of the same molecule?
A: increases

B2: CD47 (murine): N109T (protein)
parent chain: B1 parent chain
Q: Which “other: NK cell TNF-α and GZMB expression” value [10] does the source give for B2 here?
A: increases

B3: CD47 (murine): N109A (protein)
parent chain: B1 parent chain
Q: With B3 as the molecule, how does the “other: NK cell TNF-α and GZMB expression” value [10] read?
A: increases
